This note sets out measurements from publication PMC3547035, “Investigating the Antiproliferative Activity of High Affinity DNA Aptamer on Cancer Cells”.

Series [1] concerns the target VEGF121 (Homo sapiens, UniProt P15692-9 27-147). In words: SPR; SPR BIAcore 2000, CM5 chip, immobilized protein ~200 RU, PBS + Tween-20 running buffer (pH not stated), 25 C, aptamer 0.2-100 nM, 1:1 Langmuir fit. Particulars: protein: recombinant; tags: carrier free; chain copies: 2; hairpin (CD). Background: In SPR one partner is held on a chip, and binding of the other changes the refractive index at the surface.

The target of series [2] is VEGF165 (Homo sapiens, UniProt P15692-4 27-191). The series is described as above. Particulars: protein: recombinant; tags: carrier free; chain copies: 2; hairpin (CD).
VEGF165, sequence (P15692 other isoform, or with tags, fused parts or gaps): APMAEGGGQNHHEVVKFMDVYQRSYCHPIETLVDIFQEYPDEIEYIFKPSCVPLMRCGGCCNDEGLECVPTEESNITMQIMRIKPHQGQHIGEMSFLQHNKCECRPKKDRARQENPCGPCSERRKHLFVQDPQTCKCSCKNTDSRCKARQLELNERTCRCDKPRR

VEGF121, sequence (P15692 other isoform, or with tags, fused parts or gaps): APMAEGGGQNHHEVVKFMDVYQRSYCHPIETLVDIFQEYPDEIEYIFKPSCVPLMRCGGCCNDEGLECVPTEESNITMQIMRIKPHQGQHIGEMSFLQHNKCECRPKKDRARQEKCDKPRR

B1: PS-modified SL2-B (XNA)
DNA: CAATTGGGCCCGTCCGTATGGTGGGT
modifications: phosphorothioate linkages C1*A2 and G25*T26
Usually Kd stands for the constant that tells how readily two partners part at equilibrium. On to B1, for which the values for the Kd in series [1] and in series [2] were 17 ± 1.24 µM and 0.56 ± 0.44 nM, respectively.
